Measured values reported in patent US20190381171A1, “CO-USE OF ANTI-BCMA ANTIBODY AND ANTIBODY-COUPLED T CELL RECEPTOR (ACTR) IN CANCER THERAPY AND B CELL DISORDERS” (UNUM THERAPEUTICS INC., priority 2017, published 2019).

Experiments:
NCI-H929 target cells = test: ACTR T-cell cytokine release (IFNγ, IL2; Meso Scale Discovery) in co-culture with target cells and antibody; assay type: cell-based, human; conditions: T-cells expressing ACTR variant SEQ ID NO: 1, E:T 4:1, 24 hours, increasing antibody concentration (FIG. 4 chimeric, FIG. 9 humanized)
Experimental: T-cells expressing ACTR variant SEQ ID NO: 1 (effector; E) and target cells (target; T) were incubated at a 4:1, effector-to-target ratio (120,000 T cells; 30,000 target cells) with increasing concentrations of various chimeric antibodies in a 200-μL reaction volume in RPMI 1640 media supplemented with 10% fetal bovine serum. In FIG. 4, the chimeric antibodies included fucosylated and afucosylated (SEA) versions of the SG16.17 and SG16.45 anti-BCMA antibodies at a concentration range of 100-0.0005 μg/mL. In FIG. 9, humanized afucosylated (SEA) SG16.17 antibody was used at a concentration range of 3.8-0.002 μg/mL. […] Supernatants were subsequently analyzed for IFNγ and IL2 using the Meso Scale Discovery V-Plex Human IFN-γ Kit (K151QOD-4) and V-Plex Human IL-2 Kit (K151QQD-4). Briefly, the Proinflammatory Calibrator Blend, Detection Antibody Solution, and Read Buffer were prepared according to manufacturer protocols. […] Read Buffer (150 μL) was added to the plate and the plates were run on the MSD Quickplex SQ 120.
For these experiments, BCMA+ HER2− NCI− H929 and BCMA− HER2+ SKBR3 target cells were used. […] Supernatants were subsequently analyzed for IFNγ using the Meso Scale Discovery V-Plex Human IFN-γ Kit (K151QOD-4). Briefly, the Proinflammatory Calibrator Blend, Detection Antibody Solution, and Read Buffer were prepared according to manufacturer protocols. […]

U266B1 target cells = test: Activation markers (CD25, CD69) on ACTR T-cells by flow cytometry; assay type: cell-based, human; conditions: ACTR variant SEQ ID NO: 1, E:T 1:1, 1 μg/mL antibody, 24 hours
Experimental: T-cells (effector; E) and target cells (target; T) were incubated at a 1:1, effector-to-target ratio (30,000 T cells; 30,000 target cells) with 1 μg/mL of anti-BCMA antibodies in a 200-μL reaction volume in RPMI 1640 media supplemented with 10% fetal bovine serum. Reactions were incubated in a CO2 (5%) incubator at 37 degrees C. for 24 hours. Geometric Mean Fluorescence intensity (gMFI) of two activation markers, CD25 and CD69 were determined in the total CD3+ CD16+ ACTR T-cell gate via flow cytometry. Briefly, cells were washed twice in staining buffer before being stained with a Live/Dead eFluor-450 dye for 30 min at 4 degrees C. After incubating in the live/dead cell stain, cells were washed twice and incubated with 100 μL of an antibody cocktail consisting of AF488-conjugated anti-human CD3 antibody, APC-conjugated anti-human CD16 antibody, PerCP-Cy5.5-conjugated anti-human CD25 antibody, and BV510-conjugated anti-human CD69 antibody. Subsequently, cells were washed twice, fixed, permeabilized, and stained for intracellular molecules prior to detection via flow cytometry. Flow cytometry gating on CD3+ CD16+ ACTR T-cells was performed after doublet and dead cell exclusion.

B1: cSG16.45SEA: afucosylated (SEA) version of the chimeric SG16.45 anti-BCMA antibody (antibody, V domains shown)
VH: EVQLVESGGGLVQPGRSLKLSCVASGFTFNDHWMTWIRQAPGRGLEWISSITNTGGATYYLDSVKGRFTISRDNAKSTLYLQMNSLRSEDTATYYCTSPGLYFDYWGQGVMVTVSS
VL: EIVLTQSPTTTAASPGEKVTITCLATSSVSVMYWYQHKSGASPKLLIYSTSSLASGVPDRFSGSGSGTSYSLTINTMEAEDAATYYCHQWSSDPPTFGSGTKLEIKR
ACTR T-cell IFNγ and IL2 release (NCI-H929 target cells): increased potency in cytokine release when compared to their fucosylated counterparts
levels of activation markers CD25 and CD69 (gMFI) on ACTR T-cells (U266B1 target cells): enhanced expression of CD25 and CD69 when compared to incubations with their fucosylated counterparts
